According to patent publication US20210198647:

Experiments:
[1] = system: NlnA#2, NSC 523374, D,L-histidyl-D,L-histidine
[2] = system: NlnA#1, NSC 374121, L-histidyl-L-tyrosine

recombinant human neurolysin (R & D systems, product number 3814-ZN)
Emax, QFS (25 µM) hydrolysis [1]: 214.3% (95% confidence intervals 205.7 to 222.9%) | Emax, QFS (25 µM) hydrolysis [2]: 203.5% (95% confidence intervals 193.7 to 213.4%)

mouse brain-purified neurolysin
Emax, QFS (25 µM) hydrolysis [1]: 258% (95% confidence intervals 232.7 to 283.8%) | Emax, QFS (25 µM) hydrolysis [2]: 190% (95% confidence intervals 169.2 to 210.7%)
